Results from the supplement of paper PMC5998384.

Tests used:
HeLa Kyoto [1] = experiment: solubility in G1/S (NP-40 vs SDS abundance) (log2 ratio); higher = more soluble; settings: cell cycle stage: G1/S
HeLa Kyoto [2] = experiment: melting temperature (median over replicates), in situ; higher = more thermally stable
HeLa Kyoto [3] = experiment: solubility change mitosis vs G1/S (difference of NP-40 vs SDS log2 ratios) (log2 ratio difference); higher = more soluble in mitosis
HeLa Kyoto [4] = experiment: thermal stability score vs G1/S (z-score of summed log2 fold changes over temperatures); higher = more thermally stable than in G1/S
[5] = cell cycle stage: early G1 (4.5 h after nocodazole release)
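Wherever melting temperature (median over replicates), in situ is given: HeLa Kyoto cells synchronized by double thymidine or nocodazole block, proteins quantified by TMT10plex mass spectrometry, three independent biological replicates.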
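Wherever solubility change mitosis vs G1/S (difference of NP-40 vs SDS log2 ratios) is given: synchronized HeLa Kyoto cells (double thymidine block for G1/S, nocodazole release for mitosis), protein amounts in NP-40 versus SDS lysates quantified by mass spectrometry, three biological replicates.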
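Wherever solubility in G1/S (NP-40 vs SDS abundance) is given: HeLa Kyoto cells arrested at G1/S by double thymidine block, proteins quantified by TMT10plex mass spectrometry in mild NP-40 versus SDS extracts, three biological replicates.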
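Wherever thermal stability score vs G1/S (z-score of summed log2 fold changes over temperatures) is given: synchronized HeLa Kyoto cells, proteins quantified by TMT10plex mass spectrometry, three biological replicates, mitosis taken 0.5 h after nocodazole release, G1/S directly after double thymidine block.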

| Sequence | solubility in G1/S (log2) (HeLa Kyoto [1]) | melting temperature (HeLa Kyoto [2]; cell cycle stage: G1/S) | melting temperature (HeLa Kyoto [2]; cell cycle stage: mitosis) | solubility change mitosis (log2) (HeLa Kyoto [3]) | thermal stability score (HeLa Kyoto [4]; [5]) | thermal stability score (HeLa Kyoto [4]; cell cycle stage: mitosis) |
| --- | --- | --- | --- | --- | --- | --- |
| MSAGEVERLVSELSGGTGGDEEEEWLYGGPWDVHVHSDLAKDLDENEVERPEEENASANPPSGIEDETAENGVPKPKVTETEDDSDSDSDDDEDDVHVTIGDIKTGAPQYGSYGTAPVNLNIKTGGRVYGTTGTKVKGVDLDAPGSINGVPLLEVDLDSFEDKPWRKPGADLSDYFNYGFNEDTWKAYCEKQKRIRMGLEVIPVTSTTNKITAEDCTMEVTPGAEIQDGRFNLFKVQQGRTGNSEKETALPSTKAEFTSPPSLFKTGLPPSRNSTSSQSQTSTASRKANSSVGKWQDRYGRAESPDLRRLPGAIDVIGQTITISRVEGRRRANENSNIQVLSERSATEVDNNFSKPPPFFPPGAPPTHLPPPPFLPPPPTVSTAPPLIPPPGFPPPPGAPPPSLIPTIESGHSSGYDSRSARAFPYGNVAFPHLPGSAPSWPSLVDTSKQWDYYARREKDRDRERDRDRERDRDRDRERERTRERERERDHSPTPSVFNSDEERYRYREYAERGYERHRASREKEERHRERRHREKEETRHKSSRSNSRRRHESEEGDSHRRHKHKKSKRSKEGKEAGSEPAPEQESTEATPAE [FIP1L1] | -0.594 | 48.8 °C | 49.9 °C | 0.265 | 0.669 | 2.71 |
| MSAIPAEESDQLLIRPLGAGQEVGRSCIILEFKGRKIMLDCGIHPGLEGMDALPYIDLIDPAEIDLLLISHFHLDHCGALPWFLQKTSFKGRTFMTHATKAIYRWLLSDYVKVSNISADDMLYTETDLEESMDKIETINFHEVKEVAGIKFWCYHAGHVLGAAMFMIEIAGVKLLYTGDFSRQEDRHLMAAEIPNIKPDILIIESTYGTHIHEKREEREARFCNTVHDIVNRGGRGLIPVFALGRAQELLLILDEYWQNHPELHDIPIYYASSLAKKCMAVYQTYVNAMNDKIRKQININNPFVFKHISNLKSMDHFDDIGPSVVMASPGMMQSGLSRELFESWCTDKRNGVIIAGYCVEGTLAKHIMSEPEEITTMSGQKLPLKMSVDYISFSAHTDYQQTSEFIRALKPPHVILVHGEQNEMARLKAALIREYEDNDEVHIEVHNPRNTEAVTLNFRGEKLAKVMGFLADKKPEQGQRVSGILVKRNFNYHILSPCDLSNYTDLAMSTVKQTQAIPYTGPFNLLCYQLQKLTGDVEELEIQEKPALKVFKNITVIQEPGMVVLEWLANPSNDMYADTVTTVILEVQSNPKIRKGAVQKVSKKLEMHVYSKRLEIMLQDIFGEDCVSVKDDSILSVTVDGKTANLNLETRTVECEEGSEDDESLREMVELAAQRLYEALTPVH [CPSF3] | -0.183 | 51.2 °C | 50.5 °C | -0.00173 | 0.918 | 1.38 |
| MSALLRLLRTGAPAAACLRLGTSAGTGSRRAMALYHTEERGQPCSQNYRLFFKNVTGHYISPFHDIPLKVNSKEENGIPMKKARNDEYENLFNMIVEIPRWTNAKMEIATKEPMNPIKQYVKDGKLRYVANIFPYKGYIWNYGTLPQTWEDPHEKDKSTNCFGDNDPIDVCEIGSKILSCGEVIHVKILGILALIDEGETDWKLIAINANDPEASKFHDIDDVKKFKPGYLEATLNWFRLYKVPDGKPENQFAFNGEFKNKAFALEVIKSTHQCWKALLMKKCNGGAINCTNVQISDSPFRCTQEEARSLVESVSSSPNKESNEEEQVWHFLGK [PPA2] | 0.442 | 54.8 °C | 55.1 °C | 0.0395 | -1.33 | -2 |
| MSAQAQMRALLDQLMGTARDGDETRQRVKFTDDRVCKSHLLDCCPHDILAGTRMDLGECTKIHDLALRADYEIASKERDLFFELDAMDHLESFIAECDRRTELAKKRLAETQEEISAEVSAKAEKVHELNEEIGKLLAKAEQLGAEGNVDESQKILMEVEKVRAKKKEAEEEYRNSMPASSFQQQKLRVCEVCSAYLGLHDNDRRLADHFGGKLHLGFIQIREKLDQLRKTVAEKQEKRNQDRLRRREEREREERLSRRSGSRTRDRRRSRSRDRRRRRSRSTSRERRKLSRSRSRDRHRRHRSRSRSHSRGHRRASRDRSAKYKFSRERASREESWESGRSERGPPDWRLESSNGKMASRRSEEKEAGEI [LUC7L] | -0.598 | 50.1 °C | 51.4 °C | 0.353 | 1.93 | 1.87 |
| MSAQAQMRAMLDQLMGTSRDGDTTRQRIKFSDDRVCKSHLLNCCPHDVLSGTRMDLGECLKVHDLALRADYEIASKEQDFFFELDAMDHLQSFIADCDRRTEVAKKRLAETQEEISAEVAAKAERVHELNEEIGKLLAKVEQLGAEGNVEESQKVMDEVEKARAKKREAEEVYRNSMPASSFQQQKLRVCEVCSAYLGLHDNDRRLADHFGGKLHLGFIEIREKLEELKRVVAEKQEKRNQERLKRREEREREEREKLRRSRSHSKNPKRSRSREHRRHRSRSMSRERKRRTRSKSREKRHRHRSRSSSRSRSRSHQRSRHSSRDRSRERSKRRSSKERFRDQDLASCDRDRSSRDRSPRDRDRKDKKRSYESANGRSEDRRSSEEREAGEI [LUC7L2] | -0.803 | 48.6 °C | 50.7 °C | 0.251 | 2.1 | 3.71 |
| MSASAPAAEGEGTPTQPASEKEPEMPGPREESEEEEDEDDEEEEEEEKEKSLIVEGKREKKKVERLTMQVSSLQREPFTIAQGKGQKLCEIERIHFFLSKKKTDELRNLHKLLYNRPGTVSSLKKNVGQFSGFPFEKGSVQYKKKEEMLKKFRNAMLKSICEVLDLERSGVNSELVKRILNFLMHPKPSGKPLPKSKKTCSKGSKKERNSSGMARKAKRTKCPEILSDESSSDEDEKKNKEESSDDEDKESEEEPPKKTAKREKPKQKATSKSKKSVKSANVKKADSSTTKKNQNSSKKESESEDSSDDEPLIKKLKKPPTDEELKETIKKLLASANLEEVTMKQICKKVYENYPTYDLTERKDFIKTTVKELIS | -0.0398 | 48.8 °C | 50.7 °C | 0.338 | 7.97 | 13.2 |
| MSASAQQLAEELQIFGLDCEEALIEKLVELCVQYGQNEEGMVGELIAFCTSTHKVGLTSEILNSFEHEFLSKRLSKARHSTCKDSGHAGARDIVSIQELIEVEEEEEILLNSYTTPSKGSQKRAISTPETPLTKRSVSTRSPHQLLSPSSFSPSATPSQKYNSRSNRGEVVTSFGLAQGVSWSGRGGAGNISLKVLGCPEALTGSYKSMFQKLPDIREVLTCKIEELGSELKEHYKIEAFTPLLAPAQEPVTLLGQIGCDSNGKLNNKSVILEGDREHSSGAQIPVDLSELKEYSLFPGQVVIMEGINTTGRKLVATKLYEGVPLPFYQPTEEDADFEQSMVLVACGPYTTSDSITYDPLLDLIAVINHDRPDVCILFGPFLDAKHEQVENCLLTSPFEDIFKQCLRTIIEGTRSSGSHLVFVPSLRDVHHEPVYPQPPFSYSDLSREDKKQVQFVSEPCSLSINGVIFGLTSTDLLFHLGAEEISSSSGTSDRFSRILKHILTQRSYYPLYPPQEDMAIDYESFYVYAQLPVTPDVLIIPSELRYFVKDVLGCVCVNPGRLTKGQVGGTFARLYLRRPAADGAERQSPCIAVQVVRI [POLA2] | 0.0737 | 48.8 °C | 50.2 °C | -0.155 | 1.44 | 4.66 |
| MSASLVRATVRAVSKRKLQPTRAALTLTPSAVNKIKQLLKDKPEHVGVKVGVRTRGCNGLSYTLEYTKTKGDSDEEVIQDGVRVFIEKKAQLTLLGTEMDYVEDKLSSEFVFNNPNIKGTCGCGESFNI [ISCA1] | 0.427 | 52.3 °C | 51.9 °C | -0.0859 | -0.782 | -2.35 |
| MSATVVDAVNAAPLSGSKEMSLEEPKKMTREDWRKKKELEEQRKLGNAPAEVDEEGKDINPHIPQYISSVPWYIDPSKRPTLKHQRPQPEKQKQFSSSGEWYKRGVKENSIITKYRKGACENCGAMTHKKKDCFERPRRVGAKFTGTNIAPDEHVQPQLMFDYDGKRDRWNGYNPEEHMKIVEEYAKVDLAKRTLKAQKLQEELASGKLVEQANSPKHQWGEEEPNSQMEKDHNSEDEDEDKYADDIDMPGQNFDSKRRITVRNLRIREDIAKYLRNLDPNSAYYDPKTRAMRENPYANAGKNPDEVSYAGDNFVRYTGDTISMAQTQLFAWEAYDKGSEVHLQADPTKLELLYKSFKVKKEDFKEQQKESILEKYGGQEHLDAPPAELLLAQTEDYVEYSRHGTVIKGQERAVACSKYEEDVKIHNHTHIWGSYWKEGRWGYKCCHSFFKYSYCTGEAGKEIVNSEECIINEITGEESVKKPQTLMELHQEKLKEEKKKKKKKKKKHRKSSSDSDDEEKKHEKLKKALNAEEARLLHVKETMQIDERKRPYNSMYETREPTEEEMEAYRMKRQRPDDPMASFLGQ [SLU7] | -0.523 | 46.9 °C | 49.9 °C | 0.256 | 0.191 | 0.493 |
| MSAYPKSYNPFDDDGEDEGARPAPWRDARDLPDGPDAPADRQQYLRQEVLRRAEATAASTSRSLALMYESEKVGVASSEELARQRGVLERTEKMVDKMDQDLKISQKHINSIKSVFGGLVNYFKSKPVETPPEQNGTLTSQPNNRLKEAISTSKEQEAKYQASHPNLRKLDDTDPVPRGAGSAMSTDAYPKNPHLRAYHQKIDSNLDELSMGLGRLKDIALGMQTEIEEQDDILDRLTTKVDKLDVNIKSTERKVRQL [SNAP29] | 0.394 | 52.7 °C | 52.7 °C | 0.314 | -4.76 | -2.04 |
| MSDEEARQSGGSSQAGVVTVSDVQELMRRKEEIEAQIKANYDVLESQKGIGMNEPLVDCEGYPRSDVDLYQVRTARHNIICLQNDHKAVMKQVEEALHQLHARDKEKQARDMAEAHKEAMSRKLGQSESQGPPRAFAKVNSISPGSPASIAGLQVDDEIVEFGSVNTQNFQSLHNIGSVVQHSEGKPLNVTVIRRGEKHQLRLVPTRWAGKGLLGCNIIPLQR [PSMD9] | 0.431 | 55.8 °C | 55.7 °C | 0.112 | -2.77 | -3.23 |
| MSDFDEFERQLNENKQERDKENRHRKRSHSRSRSRDRKRRSRSRDRRNRDQRSASRDRRRRSKPLTRGAKEEHGGLIRSPRHEKKKKVRKYWDVPPPGFEHITPMQYKAMQAAGQIPATALLPTMTPDGLAVTPTPVPVVGSQMTRQARRLYVGNIPFGITEEAMMDFFNAQMRLGGLTQAPGNPVLAVQINQDKNFAFLEFRSVDETTQAMAFDGIIFQGQSLKIRRPHDYQPLPGMSENPSVYVPGVVSTVVPDSAHKLFIGGLPNYLNDDQVKELLTSFGPLKAFNLVKDSATGLSKGYAFCEYVDINVTDQAIAGLNGMQLGDKKLLVQRASVGAKNATLVSPPSTINQTPVTLQVPGLMSSQVQMGGHPTEVLCLMNMVLPEELLDDEEYEEIVEDVRDECSKYGLVKSIEIPRPVDGVEVPGCGKIFVEFTSVFDCQKAMQGLTGRKFANRVVVTKYCDPDSYHRRDFW [U2AF2] | -0.395 | 49.7 °C | 50.5 °C | 0.177 | 1.65 | 5.33 |
| MSDGDYDYLIKFLALGDSGVGKTSVLYQYTDGKFNSKFITTVGIDFREKRVVYRASGPDGATGRGQRIHLQLWDTAGQERFRSLTTAFFRDAMGFLLLFDLTNEQSFLNVRNWISQLQMHAYCENPDIVLCGNKSDLEDQRVVKEEEAIALAEKYGIPYFETSAANGTNISQAIEMLLDLIMKRMERCVDKSWIPEGVVRSNGHASTDQLSEEKEKGACGC [RAB27A] | 0.222 | 52.7 °C | 53.9 °C | -0.0891 | 2.41 | 2.1 |
| MSDHGDVSLPPEDRVRALSQLGSAVEVNEDIPPRRYFRSGVEIIRMASIYSEEGNIEHAFILYNKYITLFIEKLPKHRDYKSAVIPEKKDTVKKLKEIAFPKAEELKAELLKRYTKEYTEYNEEKKKEAEELARNMAIQQELEKEKQRVAQQKQQQLEQEQFHAFEEMIRNQELEKERLKIVQEFGKVDPGLGGPLVPDLEKPSLDVFPTLTVSSIQPSDCHTTVRPAKPPVVDRSLKPGALSNSESIPTIDGLRHVVVPGRLCPQFLQLASANTARGVETCGILCGKLMRNEFTITHVLIPKQSAGSDYCNTENEEELFLIQDQQGLITLGWIHTHPTQTAFLSSVDLHTHCSYQMMLPESVAIVCSPKFQETGFFKLTDHGLEEISSCRQKGFHPHSKDPPLFCSCSHVTVVDRAVTITDLR [STAMBP] | 0.276 | 48.6 °C | 49.7 °C | -0.118 | 0.214 | 0.921 |
